Laboratory results: article PMC6471090

What was measured:
[1] = biological target: wild-type green fluorescent protein (GFP) (Aequorea victoria) [GFP: P42212]; experiment: single-molecule photobleaching step counting and fluorescence intensity distribution (TIRFM); purified protein, 0.57 μg/mL solution, single spots imaged on the coverslip surface; 473-nm laser; self-association (monomer to dimer)
[2] = biological target: wild-type green fluorescent protein (GFP) (Aequorea victoria) [GFP: P42212]; experiment: single-molecule photobleaching step counting and fluorescence intensity distribution (TIRFM); purified protein, 0.17 μg/mL solution, single spots imaged on the coverslip surface; 473-nm laser; self-association (monomer to dimer)

percent of spots in the major intensity population (monomers) [1]: 97% | percent of spots with two-step photobleaching (dimers) [1]: 8.6% | percent of spots with one-step photobleaching (monomers) [2]: 96.5% | percent of spots with two-step photobleaching (dimers) [2]: 3.5% | stoichiometry N [2]: 2
Substance: wild-type green fluorescent protein (GFP) (from UniProt P42212 1-238) (natural protein)
